According to patent US20230391850A1:

How the values were obtained:
[1] = molecular target: human polyclonal IgG (Gammanorm) (human); assay: Biacore SPR, ligand on CM5 chip, 1 mg/ml human polyclonal IgG flowed over; signal left after 100 cycles of 10 min in 0.5 M NaOH
[2] = molecular target: human polyclonal IgG (Gammanorm) (human); assay: Biacore SPR, remaining IgG binding capacity after 100 NaOH cycles as a ratio to the reference ligand SEQ ID NO: 12
[3] = molecular target: human polyclonal IgG (Gammanorm) (human); assay: Biacore SPR, reference ligand on CM5 chip, 1 mg/ml human polyclonal IgG; signal left after 100 cycles of 10 min in 0.5 M NaOH (run beside SEQ ID NO 8)
[4] = molecular target: human polyclonal IgG (Gammanorm) (human); assay: Biacore SPR, reference ligand on CM5 chip, 1 mg/ml human polyclonal IgG; signal left after 100 cycles of 10 min in 0.5 M NaOH (run beside SEQ ID NO 9)

| Substance | Capacity after 100 cycles (remaining IgG binding capacity) [1] [%] | Capacity relative to Ref [2] | Reference capacity after 100 cycles (remaining IgG binding capacity) [3] [%] | Reference capacity after 100 cycles (remaining IgG binding capacity) [4] [%] |
| --- | --- | --- | --- | --- |
| Zvar(Q9A, N11R, Q40V, A42K, N43A, L44I)1 (designed binder) | 74 | 1.14 | – | – |
| Zvar(Q9A,N11E,Q40V,A42K,N43A,L44Di (SEQ ID NO: 12) (designed binder) | – | – | 65 | 64 |
| Zvar(Q9W, N11E, Q40V, A42K, N43A, L44I)1 (designed binder) | 70 | 1.09 | – | – |
